# Patent US20040180051A1 (published 2004)
# Biological target: T1, human tissue factor (human TF) on human bladder carcinoma cells J82 (human, UniProt P13726 33-295)
# T1 construct: whole, on cells; Target of the cell ELISA; also called the antigen
# Experiment: cell ELISA on fixed J82 cells;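 note: measures antigen binding in a cell ELISA on J82 cells grown one day in 96-well plates and fixed with 4% paraformaldehyde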
row,Binder,binding result
1,"humanized L chain version “b” combined with a chimeric H chain (antibody, V domains shown, expressed in COS-7; also called ch-b) VH: EVQLQQSGTNLVRPGALVKLSCKGSGFNIKDYYMHWVKQRPEQGLEWIGGNDPANGHSMYDPKFQGKASITADTSSNTAYLQLSSLTSEDTAVYFCARDSGYAMDYWGQGTSVTVSS VL: DIQMTQSPSSLSASVGDRVTITCKASQDIKSFLSWYQQKPGKAPKLLIYYATSLADGVPSRFSGSGSGTDYTLTISSLQPEDFATYYCLQHGESPYTFGGGTKVEIK",binds
2,"H chain humanized version b/L chain humanized version b antibody (antibody, V domains shown, also called b-b) VH: QVQLLESGAVLARPGTSVKISCKASGFNIKDYYMHWVKQRPGQGLEWIGGNDPANGHSMYDPKFQGRVTITADTSTNTAYMELSSLRSEDTAIYYCARDSGYAMDYWGQGTLVTVSS VL: DIQMTQSPSSLSASVGDRVTITCKASQDIKSFLSWYQQKPGKAPKLLIYYATSLADGVPSRFSGSGSGTDYTLTISSLQPEDFATYYCLQHGESPYTFGGGTKVEIK",binds
3,"humanized L chain version “c” combined with a chimeric H chain (antibody, V domains shown, expressed in COS-7) VH: EVQLQQSGTNLVRPGALVKLSCKGSGFNIKDYYMHWVKQRPEQGLEWIGGNDPANGHSMYDPKFQGKASITADTSSNTAYLQLSSLTSEDTAVYFCARDSGYAMDYWGQGTSVTVSS VL: DIQMTQSPSSLSASVGDRVTITCKASQDIKSFLSWYQQKPGKAPKLLIYYATSLADGVPSRFSGSGSGTDYTLTISSLQPEDIATYYCLQHGESPYTFGGGTKVEIK",binds
4,"humanized L chain version “b1” combined with a chimeric H chain (antibody, V domains shown, expressed in COS-7; also called ch-b1) VH: EVQLQQSGTNLVRPGALVKLSCKGSGFNIKDYYMHWVKQRPEQGLEWIGGNDPANGHSMYDPKFQGKASITADTSSNTAYLQLSSLTSEDTAVYFCARDSGYAMDYWGQGTSVTVSS VL: DIQMTQSPSSLSASVGDRVTITCKASQDIKSFLSWFQQKPGKSPKTLIYYATSLADGVPSRFSGSGSGTDYTLTISSLQPEDFATYYCLQHGESPYTFGGGTKVEIK",binds
5,"humanized H chain version “b” combined with the humanized L chain version “c” (antibody, V domains shown, The construction of its expression plasmid is not described) VH: QVQLLESGAVLARPGTSVKISCKASGFNIKDYYMHWVKQRPGQGLEWIGGNDPANGHSMYDPKFQGRVTITADTSTNTAYMELSSLRSEDTAIYYCARDSGYAMDYWGQGTLVTVSS VL: DIQMTQSPSSLSASVGDRVTITCKASQDIKSFLSWYQQKPGKAPKLLIYYATSLADGVPSRFSGSGSGTDYTLTISSLQPEDIATYYCLQHGESPYTFGGGTKVEIK",binds
6,"H chain humanized version i/L chain humanized version b antibody (antibody, V domains shown) VH: QVQLLESGAVLARPGTSVKISCKASGFNIKDYYMHWVKQRPGQGLEWIGGNDPANGHSMYDPKFQGRVTITADTSTSTVFMELSSLRSEDTAVYYCARDSGYAMDYWGQGTLVTVSS VL: DIQMTQSPSSLSASVGDRVTITCKASQDIKSFLSWYQQKPGKAPKLLIYYATSLADGVPSRFSGSGSGTDYTLTISSLQPEDFATYYCLQHGESPYTFGGGTKVEIK",binds
7,"H chain humanized version i/L chain humanized version b2 antibody (antibody, V domains shown, also called i-b2) VH: QVQLLESGAVLARPGTSVKISCKASGFNIKDYYMHWVKQRPGQGLEWIGGNDPANGHSMYDPKFQGRVTITADTSTSTVFMELSSLRSEDTAVYYCARDSGYAMDYWGQGTLVTVSS VL: DIQMTQSPSSLSASVGDRVTITCKASQDIKSFLSWYQQKPEKAPKSLIYYATSLADGVPSRFSGSGSGTDYTLTISSLQPEDFATYYCLQHGESPYTFGGGTKVEIK",binds
8,"humanized H chain version “d3” combined with the humanized L chain version “b” (antibody, V domains shown, expressed in COS-7; also called d3-b) VH: QVQLLESGAVLARPGTSVKISCKASGFNIKDYYMHWVRQAPGQGLEWIGGNDPANGHSMYDPKFQGRVTITADESTSTAYMELSSLRSEDSAVYFCARDSGYAMDYWGQGTLVTVSS VL: DIQMTQSPSSLSASVGDRVTITCKASQDIKSFLSWYQQKPGKAPKLLIYYATSLADGVPSRFSGSGSGTDYTLTISSLQPEDFATYYCLQHGESPYTFGGGTKVEIK",binds
9,"humanized H chain version “i” combined with the humanized L chain version “b1” (antibody, V domains shown, expressed in COS-7; also called i-b1) VH: QVQLLESGAVLARPGTSVKISCKASGFNIKDYYMHWVKQRPGQGLEWIGGNDPANGHSMYDPKFQGRVTITADTSTSTVFMELSSLRSEDTAVYYCARDSGYAMDYWGQGTLVTVSS VL: DIQMTQSPSSLSASVGDRVTITCKASQDIKSFLSWFQQKPGKSPKTLIYYATSLADGVPSRFSGSGSGTDYTLTISSLQPEDFATYYCLQHGESPYTFGGGTKVEIK",binds
10,"humanized H chain version “b3” combined with the humanized L chain version “b” (antibody, V domains shown, expressed in COS-7; also called b3-b) VH: QVQLLESGAVLARPGTSVKISCKASGFNIKDYYMHWVRQAPGQGLEWIGGNDPANGHSMYDPKFQGRVTITADTSTNTAYMELSSLRSEDTAIYYCARDSGYAMDYWGQGTLVTVSS VL: DIQMTQSPSSLSASVGDRVTITCKASQDIKSFLSWYQQKPGKAPKLLIYYATSLADGVPSRFSGSGSGTDYTLTISSLQPEDFATYYCLQHGESPYTFGGGTKVEIK",binds
11,"humanized H chain version “b” combined with a chimeric L chain (antibody, V domains shown, expressed in COS-7; also called b-ch) VH: QVQLLESGAVLARPGTSVKISCKASGFNIKDYYMHWVKQRPGQGLEWIGGNDPANGHSMYDPKFQGRVTITADTSTNTAYMELSSLRSEDTAIYYCARDSGYAMDYWGQGTLVTVSS VL: DIKMTQSPSSMYASLGERVTITCKASQDIKSFLSWYQQKPWKSPKTLIYYATSLADGVPSRFSGSGSGQDYSLTINNLESDDTATYYCLQHGESPYTFGGGTKLEIK",binds

# Other lines, results leading:
row,binding result,Binder
1,binds,"humanized H chain version “g” combined with the humanized L chain version “b” (antibody, V domains shown, expressed in COS-7; also called g-b) VH: QVQLLESGAVLARPGTSVKISCKASGFNIKDYYMHWVKQRPGQGLEWIGGNDPANGHSMYDPKFQGKATLTADESSSTAYMQLSSLRSEDSAVYSCARDSGYAMDYWGQGTLVTVSS VL: DIQMTQSPSSLSASVGDRVTITCKASQDIKSFLSWYQQKPGKAPKLLIYYATSLADGVPSRFSGSGSGTDYTLTISSLQPEDFATYYCLQHGESPYTFGGGTKVEIK"
2,binds,"humanized H chain version “j” combined with the humanized L chain version “b” (antibody, V domains shown, expressed in COS-7; also called j-b) VH: QVQLLESGAVLARPGTSVKISCKASGFNIKDYYMHWVKQRPGQGLEWIGGNDPANGHSMYDPKFQGRVTFTADTSANTAYMELRSLRSADTAVYYCARDSGYAMDYWGQGTLVTVSS VL: DIQMTQSPSSLSASVGDRVTITCKASQDIKSFLSWYQQKPGKAPKLLIYYATSLADGVPSRFSGSGSGTDYTLTISSLQPEDFATYYCLQHGESPYTFGGGTKVEIK"
3,binds,"humanized L chain version “a” combined with a chimeric H chain (antibody, V domains shown, expressed in COS-7) VH: EVQLQQSGTNLVRPGALVKLSCKGSGFNIKDYYMHWVKQRPEQGLEWIGGNDPANGHSMYDPKFQGKASITADTSSNTAYLQLSSLTSEDTAVYFCARDSGYAMDYWGQGTSVTVSS VL: DIQMTQSPSSLSASVGDRVTITCKASQDIKSFLSWYQQKPGKAPKLLIYYATSLADGVPSRFSGSGSGTDFTLTISSLQPEDFATYYCLQHGESPYTFGGGTKVEIK"
4,binds,"humanized H chain version “d” combined with the humanized L chain version “b” (antibody, V domains shown, expressed in COS-7; also called d-b) VH: QVQLLESGAVLARPGTSVKISCKASGFNIKDYYMHWVKQRPGQGLEWIGGNDPANGHSMYDPKFQGRVTITADESTSTAYMELSSLRSEDSAVYFCARDSGYAMDYWGQGTLVTVSS VL: DIQMTQSPSSLSASVGDRVTITCKASQDIKSFLSWYQQKPGKAPKLLIYYATSLADGVPSRFSGSGSGTDYTLTISSLQPEDFATYYCLQHGESPYTFGGGTKVEIK"
5,binds,"humanized H chain version “b” combined with the humanized L chain version “b2” (antibody, V domains shown, expressed in COS-7; also called b-b2) VH: QVQLLESGAVLARPGTSVKISCKASGFNIKDYYMHWVKQRPGQGLEWIGGNDPANGHSMYDPKFQGRVTITADTSTNTAYMELSSLRSEDTAIYYCARDSGYAMDYWGQGTLVTVSS VL: DIQMTQSPSSLSASVGDRVTITCKASQDIKSFLSWYQQKPEKAPKSLIYYATSLADGVPSRFSGSGSGTDYTLTISSLQPEDFATYYCLQHGESPYTFGGGTKVEIK"
6,binds,"humanized L chain version “b2” combined with a chimeric H chain (antibody, V domains shown, expressed in COS-7; also called ch-b2) VH: EVQLQQSGTNLVRPGALVKLSCKGSGFNIKDYYMHWVKQRPEQGLEWIGGNDPANGHSMYDPKFQGKASITADTSSNTAYLQLSSLTSEDTAVYFCARDSGYAMDYWGQGTSVTVSS VL: DIQMTQSPSSLSASVGDRVTITCKASQDIKSFLSWYQQKPEKAPKSLIYYATSLADGVPSRFSGSGSGTDYTLTISSLQPEDFATYYCLQHGESPYTFGGGTKVEIK"
7,binds,"humanized H chain version “b” combined with the humanized L chain version “a” (antibody, V domains shown, expressed in COS-7; also called b-a) VH: QVQLLESGAVLARPGTSVKISCKASGFNIKDYYMHWVKQRPGQGLEWIGGNDPANGHSMYDPKFQGRVTITADTSTNTAYMELSSLRSEDTAIYYCARDSGYAMDYWGQGTLVTVSS VL: DIQMTQSPSSLSASVGDRVTITCKASQDIKSFLSWYQQKPGKAPKLLIYYATSLADGVPSRFSGSGSGTDFTLTISSLQPEDFATYYCLQHGESPYTFGGGTKVEIK"
8,binds,"humanized H chain version “a” combined with a chimeric L chain (antibody, V domains shown, expressed in COS-7) VH: QVQLLESGAVLARPGTSVKISCKASGFNIKDYYMHWVKQRPGQGLEWIGGNDPANGHSMYDPKFQGRAKLTAATSASIAYLEFSSLTNEDSAVYYCARDSGYAMDYWGQGTLVTVSS VL: DIKMTQSPSSMYASLGERVTITCKASQDIKSFLSWYQQKPWKSPKTLIYYATSLADGVPSRFSGSGSGQDYSLTINNLESDDTATYYCLQHGESPYTFGGGTKLEIK"
9,binds,"humanized H chain version “d” combined with a chimeric L chain (antibody, V domains shown, expressed in COS-7; also called d-ch) VH: QVQLLESGAVLARPGTSVKISCKASGFNIKDYYMHWVKQRPGQGLEWIGGNDPANGHSMYDPKFQGRVTITADESTSTAYMELSSLRSEDSAVYFCARDSGYAMDYWGQGTLVTVSS VL: DIKMTQSPSSMYASLGERVTITCKASQDIKSFLSWYQQKPWKSPKTLIYYATSLADGVPSRFSGSGSGQDYSLTINNLESDDTATYYCLQHGESPYTFGGGTKLEIK"
10,binds,"humanized H chain version “e” combined with a chimeric L chain (antibody, V domains shown, expressed in COS-7; also called e-ch) VH: QVQLLESGAVLARPGTSVKISCKASGFNIKDYYMHWVKQRPGQGLEWIGGNDPANGHSMYDPKFQGRVSITADESTKIAYMELNSLRSEDTAVYFCARDSGYAMDYWGQGTLVTVSS VL: DIKMTQSPSSMYASLGERVTITCKASQDIKSFLSWYQQKPWKSPKTLIYYATSLADGVPSRFSGSGSGQDYSLTINNLESDDTATYYCLQHGESPYTFGGGTKLEIK"
11,binds,"humanized H chain version “i” combined with a chimeric L chain (antibody, V domains shown, expressed in COS-7; also called i-ch) VH: QVQLLESGAVLARPGTSVKISCKASGFNIKDYYMHWVKQRPGQGLEWIGGNDPANGHSMYDPKFQGRVTITADTSTSTVFMELSSLRSEDTAVYYCARDSGYAMDYWGQGTLVTVSS VL: DIKMTQSPSSMYASLGERVTITCKASQDIKSFLSWYQQKPWKSPKTLIYYATSLADGVPSRFSGSGSGQDYSLTINNLESDDTATYYCLQHGESPYTFGGGTKLEIK"
